The record followed here is article PMC11417369, “DNA sequence and chromatin differentiate sequence-specific transcription factor binding in the human malaria parasite Plasmodium falciparum”.

B1: CACACA_site8938 (dsDNA)
DNA 1: TAATTAAATACATTAACACACACACTAATATATACA
DNA 2: TGTATATATTAGTGTGTGTGTTAATGTATTTAATTA
B2: CACACA_site2053 (dsDNA)
DNA 1: AAATTTATTATGAACATACACACAAAAAAAAAAAGT
DNA 2: ACTTTTTTTTTTTGTGTGTATGTTCATAATAAATTT
B3: CACACA_site757 (dsDNA)
DNA 1: AAACTTGACAGACACACACACACATATATAAAAAAA
DNA 2: TTTTTTTATATATGTGTGTGTGTGTCTGTCAAGTTT
B4: CACACA_site5102 (dsDNA)
DNA 1: GAGAAAAATAAATACACACACATAAATAAATACATA
DNA 2: TATGTATTTATTTATGTGTGTGTATTTATTTTTCTC
B5: CACACA_site4903 (dsDNA)
DNA 1: AAAAACCATTGGCACACACACATAATATATAATATA
DNA 2: TATATTATATATTATGTGTGTGTGCCAATGGTTTTT
B6: CACACA_site370 (dsDNA)
DNA 1: ATCAAGCACCAACACACACACACACCCCCACCCACA
DNA 2: TGTGGGTGGGGGTGTGTGTGTGTGTTGGTGCTTGAT
B7: CACACA_site2752 (dsDNA)
DNA 1: CAAACATATTAATGTACACACACCCACCCACAAACA
DNA 2: TGTTTGTGGGTGGGTGTGTGTACATTAATATGTTTG
B8: CACACA_site399 (dsDNA)
DNA 1: AACAACCAAAGGCACACACACAAAAAAAAAAATATA
DNA 2: TATATTTTTTTTTTTGTGTGTGTGCCTTTGGTTGTT
B9: CACACA_site466 (dsDNA)
DNA 1: CAAAAAAAATAAAACACACACACAAAAAAATAAAAA
DNA 2: TTTTTATTTTTTTGTGTGTGTGTTTTATTTTTTTTG
B10: CACACA_site8411 (dsDNA)
DNA 1: AAAAAAAAAAAACACACACACACACCGACAAAATAT
DNA 2: ATATTTTGTCGGTGTGTGTGTGTGTTTTTTTTTTTT
B11: CACACA_site7431 (dsDNA)
DNA 1: CTTGTCATTTTGCACACACACATGTATAGGTTATTA
DNA 2: TAATAACCTATACATGTGTGTGTGCAAAATGACAAG
B12: CACACA_site8200 (dsDNA)
DNA 1: AAACTTAATATCGGTACACACACAAGATAAGAATTA
DNA 2: TAATTCTTATCTTGTGTGTGTACCGATATTAAGTTT
B13: CACACA_site1251 (dsDNA)
DNA 1: TACAATTTAAAACACACACACAATAATACATATATA
DNA 2: TATATATGTATTATTGTGTGTGTGTTTTAAATTGTA
B14: CACACA_site710 (dsDNA)
DNA 1: AAAAAAAGATTATACACACACATATATAAACCTACA
DNA 2: TGTAGGTTTATATATGTGTGTGTATAATCTTTTTTT
B15: CACACA_site5776 (dsDNA)
DNA 1: ATTATAAATACACGCACACACACTTATATATATATA
DNA 2: TATATATATATAAGTGTGTGTGCGTGTATTTATAAT
B16: CACACA_site1104 (dsDNA)
DNA 1: AAAAAAAAAAAAAACACACACACAAAAAAAAATATA
DNA 2: TATATTTTTTTTTGTGTGTGTGTTTTTTTTTTTTTT
B17: CACACA_site9118 (dsDNA)
DNA 1: AAAAAAAACGCACATACACACACACCCATATATATA
DNA 2: TATATATATGGGTGTGTGTGTATGTGCGTTTTTTTT
B18: CACACA_site8724 (dsDNA)
DNA 1: AACACATACATATATACACACACAAAATAATAAAAT
DNA 2: ATTTTATTATTTTGTGTGTGTATATATGTATGTGTT
B19: CACACA_site4117 (dsDNA)
DNA 1: TATATATATATAGACACACACACACCCATATATATA
DNA 2: TATATATATGGGTGTGTGTGTGTCTATATATATATA
B20: CACACA_site7867 (dsDNA)
DNA 1: AAGGATATAACATACACACACACACGGATATAAATA
DNA 2: TATTTATATCCGTGTGTGTGTGTATGTTATATCCTT
B21: CACACA_site7142 (dsDNA)
DNA 1: TAGTAAAAGATATACACACACCAAAAAATATAATTA
DNA 2: TAATTATATTTTTTGGTGTGTGTATATCTTTTACTA
B22: CACACA_site8978 (dsDNA)
DNA 1: TGAGTCTTTTACATTGCACACACATTTCTTTCCTTT
DNA 2: AAAGGAAAGAAATGTGTGTGCAATGTAAAAGACTCA
B23: CACACA_site7364 (dsDNA)
DNA 1: AAAAAAAAAAAAAACACACACACACGCATACACATA
DNA 2: TATGTGTATGCGTGTGTGTGTGTTTTTTTTTTTTTT
B24: CACACA_site6794 (dsDNA)
DNA 1: B23 DNA 1 with C33A, T35A, A36T
DNA 2: B23 DNA 2 with T1A, A2T, G4T
B25: CACACA_site7579 (dsDNA)
DNA 1: TATACACATATATACACACACATATATAAATAAATA
DNA 2: TATTTATTTATATATGTGTGTGTATATATGTGTATA
B26: CACACA_site6364 (dsDNA)
DNA 1: ATAATCCTTAGACACACACACACACGAATAAATAAA
DNA 2: TTTATTTATTCGTGTGTGTGTGTGTCTAAGGATTAT
B27: CACACA_site5271 (dsDNA)
DNA 1: TATAAATACAGATACACACACACACCGATATATATA
DNA 2: TATATATATCGGTGTGTGTGTGTATCTGTATTTATA
B28: CACACA_site6531 (dsDNA)
DNA 1: AATAAATTTAGACACACACACACATATAAATAAATA
DNA 2: TATTTATTTATATGTGTGTGTGTGTCTAAATTTATT
B29: CACACA_site494 (dsDNA)
DNA 1: CATACATAGAAACACACACACACACCCACCCACAAA
DNA 2: TTTGTGGGTGGGTGTGTGTGTGTGTTTCTATGTATG
B30: CACACA_site6342 (dsDNA)
DNA 1: AAAAAAAACAGACACACACACAAATATTTATATATC
DNA 2: GATATATAAATATTTGTGTGTGTGTCTGTTTTTTTT
B31: CACACA_site7644 (dsDNA)
DNA 1: AAAAAATACAGACACACACACACACGCATATAAATA
DNA 2: TATTTATATGCGTGTGTGTGTGTGTCTGTATTTTTT
B32: CACACA_site5111 (dsDNA)
DNA 1: TATTTATAAATTTACACACACACATGGGAACATAAA
DNA 2: TTTATGTTCCCATGTGTGTGTGTAAATTTATAAATA
B33: CACACA_site2906 (dsDNA)
DNA 1: AATATAAATAAACACACACACATATATATATATATT
DNA 2: AATATATATATATATGTGTGTGTGTTTATTTATATT
B34: CACACA_site8742 (dsDNA)
DNA 1: TTATGTTCTTTAAAACCACACACCCCCCAACCCCCC
DNA 2: GGGGGGTTGGGGGGTGTGTGGTTTTAAAGAACATAA
B35: CACACA_site748 (dsDNA)
DNA 1: ATTTTTTTTTTTTCCTTACACACATATTTCATTTTA
DNA 2: TAAAATGAAATATGTGTGTAAGGAAAAAAAAAAAAT
B36: CACACA_site6496 (dsDNA)
DNA 1: TATTAAACTTGACACACACACACACGCATATATAAA
DNA 2: TTTATATATGCGTGTGTGTGTGTGTCAAGTTTAATA
B37: CACACA_site6309 (dsDNA)
DNA 1: ACATCAAGCAGACACACACACACACGCACACGCACA
DNA 2: TGTGCGTGTGCGTGTGTGTGTGTGTCTGCTTGATGT
B38: CACACA_site5427 (dsDNA)
DNA 1: TAATTATGCGGACACACACACACACCCAACTAAAAA
DNA 2: TTTTTAGTTGGGTGTGTGTGTGTGTCCGCATAATTA
B39: CACACA_site2569 (dsDNA)
DNA 1: B38 DNA 1 with G10A
DNA 2: B38 DNA 2 with C27T
B40: CACACA_site8723 (dsDNA)
DNA 1: TATTCCCCCCAACACACACACACACCGACATACCAC
DNA 2: GTGGTATGTCGGTGTGTGTGTGTGTTGGGGGGAATA
B41: CACACA_site9187 (dsDNA)
DNA 1: AAAAAAAAAATACATACACACACACCCACCCATATA
DNA 2: TATATGGGTGGGTGTGTGTGTATGTATTTTTTTTTT

Residue numbers refer to the chain shown, from its start.

In this data set the target is T1, PF3D7_0420300 D1 (Plasmodium falciparum, UniProt Q8I1N6 1956-2015).
T1 sequence: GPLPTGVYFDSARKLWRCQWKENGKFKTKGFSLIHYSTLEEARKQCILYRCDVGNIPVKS
The data set can be described thus: gcPBM; about 25 ug protein; PBS, 1% milk, 0.2 mg/ml BSA, salmon testes DNA, 0.03% Triton X-100. The settings on record: tags: N-terminal GST (pGEX-4T-1), kept; label: surface-attached array probe.
Turning to B1, the binding signal is 10 ln median PBM intensity, better of two orientations.

Consider B2, for which the binding signal was 9.98 ln median PBM intensity, better of two orientations.

Consider B3, for which the binding signal was 10.1 ln median PBM intensity, better of two orientations.

For B4, the binding signal was 10.2 ln median PBM intensity, better of two orientations.

Consider B5, for which the binding signal is 10 ln median PBM intensity, better of two orientations.

Take B6: the binding signal is 10.8 ln median PBM intensity, better of two orientations.

Take B7: the binding signal was 10.4 ln median PBM intensity, better of two orientations.

Regarding B8, the binding signal is 10 ln median PBM intensity, better of two orientations.

Turning to B9, the binding signal was 10.2 ln median PBM intensity, better of two orientations.

Consider B10, for which the binding signal was 10.2 ln median PBM intensity, better of two orientations.

As to B11, the binding signal was 10.1 ln median PBM intensity, better of two orientations.

As to B12, the binding signal was 9.96 ln median PBM intensity, better of two orientations.

On to B13, for which the binding signal is 10.1 ln median PBM intensity, better of two orientations.

Regarding B14, the binding signal is 10.1 ln median PBM intensity, better of two orientations.

B15: the binding signal is 9.96 ln median PBM intensity, better of two orientations.

Take B16: the binding signal is 10.1 ln median PBM intensity, better of two orientations.

On to B17, for which the binding signal is 10 ln median PBM intensity, better of two orientations.

Take B18: the binding signal was 10.1 ln median PBM intensity, better of two orientations.

In the case of B19, the binding signal is 10 ln median PBM intensity, better of two orientations.

Regarding B20, the binding signal was 10.4 ln median PBM intensity, better of two orientations.

For the molecule B21, the binding signal was 10 ln median PBM intensity, better of two orientations.

For B22, the binding signal was 9.97 ln median PBM intensity, better of two orientations.

B23: the binding signal is 10.2 ln median PBM intensity, better of two orientations.

As for B24, the binding signal was 10.1 ln median PBM intensity, better of two orientations.

Turning to B25, the binding signal was 9.98 ln median PBM intensity, better of two orientations.

For the molecule B26, the binding signal is 10.3 ln median PBM intensity, better of two orientations.

For the molecule B27, the binding signal is 10.2 ln median PBM intensity, better of two orientations.

As to B28, the binding signal is 10.2 ln median PBM intensity, better of two orientations.

On to B29, for which the binding signal was 10.4 ln median PBM intensity, better of two orientations.

As for B30, the binding signal was 10.2 ln median PBM intensity, better of two orientations.

Consider B31, for which the binding signal is 10.2 ln median PBM intensity, better of two orientations.

B32: the binding signal is 10.1 ln median PBM intensity, better of two orientations.

Take B33: the binding signal is 10.1 ln median PBM intensity, better of two orientations.

For the molecule B34, the binding signal was 10.4 ln median PBM intensity, better of two orientations.

Take B35: the binding signal is 9.99 ln median PBM intensity, better of two orientations.

Take B36: the binding signal is 10.3 ln median PBM intensity, better of two orientations.

B37: the binding signal was 10.4 ln median PBM intensity, better of two orientations.

Regarding B38, the binding signal was 10.1 ln median PBM intensity, better of two orientations.

As to B39, the binding signal is 10.1 ln median PBM intensity, better of two orientations.

Take B40: the binding signal was 10.8 ln median PBM intensity, better of two orientations.

Turning to B41, the binding signal is 10.4 ln median PBM intensity, better of two orientations.
